Read-outs that look alike come from different tables or passages of the source.
How the values were obtained:
[1] = molecular target: HIV-1 capsid protein CA N21C/A22C (HIV-1 NL4-3); test: cross-linking; engineered disulfide cross-links read by non-reducing SDS-PAGE; after assembly: purified protein at 1 mg/mL (also about 4 and 10 mg/mL) dialyzed into 50 mM Tris-HCl, pH 8.0, 1 M NaCl overnight at 4 °C, no reductant
[2] = molecular target: HIV-1 capsid protein CA N21C/A22C (HIV-1 NL4-3); test: as above; remark: listed apart in the source

HIV-1 capsid protein CA N21C/A22C (natural protein)
stoichiometry N [1]: 6
stoichiometry N [2]: 5

— PMC6316451
